The values that follow come from PMC8517388.

The target in series [1] is TROP-2 ectodomain expressed in HEK-293T cells (TROP-2-ECD-293T) (human) (UniProt P09758). Description: crystal structure.
The target is the same in series [2]. Description: crystal structure. This is another data set of the same source.
The target of series [3] is TROP-2 ectodomain expressed in insect cells (TROP-2-ECD-insect) (human) (UniProt P09758). Description: crystal structure.
Series [4] shares this target. Put plainly: ITC.
Series [5] shares this target. Put plainly: crystal structure. This is another data set of the same source.
Series [6] can be described thus: BS3 cross-linking, SDS-PAGE. The following applies: glycan changed form; control: TROP-2-ECD from HEK-293T cells.

Like-named read-outs stand apart in the source and are kept apart here.

With “TROP-2 ectodomain expressed in HEK-293T cells (TROP-2-ECD-293T) (from UniProt P09758 27-274) (domain or fragment)”, the figures for the stoichiometry N in series [1] and in series [2] were 4 and 2, respectively.

Molecule “TROP-2 ectodomain expressed in insect cells (TROP-2-ECD-insect) (from UniProt P09758 27-274) (domain or fragment)” returned a stoichiometry N in series [3] of 2. In series [4], this molecule yielded a dissociation constant (Kd) of 402 µM and a dH of 9140 cal/mol. This molecule showed a stoichiometry N in series [5] of 4.

B1: TROP-2 (trophoblast cell surface antigen 2) ectodomain, TROP-2-ECD: expression in insect cells (protein)
parent chain: MARGPGLAPPPLRLPLLLLVLAAVTGHTAAQDNCTCPTNKMTVCSPDGPGGRCQCRALGSGMAVDCSTLTSKCLLLKARMSAPKNARTLVRPSEHALVDNDGLYDPDCDPEGRFKARQCNQTSVCWCVNSVGVRRTDKGDLSLRCDELVRTHHILIDLRHRPTAGAFNHSDLDAELRRLFRERYRLHPKFVAAVHYEQPTIQIELRQNTSQKAAGDVDIGDAAYYFERDIKGESLFQGRGGLDLRVRGEPLQVERTLIYYLDEIPPKFSMKRLTAGLIAVIVVVVVALVAGMAVLVITNRRKSGKYKKVEIKELGELRKEPSL
Regarding B1, in series [6], the oligomerisation entry was “no change”.
